The target of the experiment is purified recombinant M1 protein from influenza virus labeled with His-tag (influenza virus). As to the kind of experiment: Western blot of 0.1-10 ng M1-HisTag, HRP-conjugated antibody 1:2000, chemiluminescence.

This note sets out measurements from patent US20180011085A1.

With “antibody against His-tag conjugated with horseradish peroxidase (Sigma, #A7058-1VL)”, the limit of detection is 500 pg.
